± gives the standard deviation.
Test: protein stability index of a GFP-peptide fusion (GPS, HEK-293T) (PSI 1-6); higher = more stable
Conditions: c terminus: a fixed tail appended
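Note: 24-mer peptide tiles fused after GFP, lentivirally expressed, FACS-sorted into six equal bins by GFP/DsRed ratio, decoded by Illumina sequencing, PSI is the read-weighted mean bin number.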

Sequence	protein stability index (treatment: DMSO)	protein stability index (treatment: MLN4924 1 uM, 8 h)
LCLDLAPSETGNTFVSGGCDKKAM [GNB5]	3.96 ± 0.15	4.02 ± 0.17
LVEAGAHTDMTNKQNKTPLDKSTT [FEM1B]	5.34 ± 0.29	5.27 ± 0.21
VIHRALDREQVSSYNITVTATDGG [PCDHGA10]	3.27 ± 0.23	3.14 ± 0.28
ALGILIFEMLSGFPPFFDDNPFGI [PRKX]	3.11 ± 1.7	3.31 ± 0.25
GHWTNVTPMATKRSGAGVALLNDH [KLHL12]	3.48 ± 0.079	3.62 ± 0.085
SGSRVRVGFRLCNSTGGDCFYRGY [SCNN1D]	2.18 ± 0.21	2.38 ± 0.49
DLSDNRNEDPLVLLAWRCTKLSLL [FBXO33]	2.54 ± 0.38	2.22 ± 0.24
LTRPVPAGADLPPPKIRLKPHRLG [PWWP2B]	3.91 ± 0.29	3.73 ± 0.21
DEQEKGIVTKFYQLSATGQKLYVR [FAN1]	2.92 ± 0.22	2.94 ± 0.54
KFLASHFPNRTDQQCQYRWLRVLN [MYBL2]	2.19 ± 0.46	2.2 ± 0.29
YKDRQKFSEQVFKVASSDLVNMGI [FLOT1]	2.52 ± 0.24	2.77 ± 0.29
MLYAKPPPTINGIKGLQRKERLKP [KRT34]	3.1 ± 0.28	3.43 ± 0.19
DLDANLRKLNSRLFVIRGQPADVF [CRY1]	2.07 ± 0.29	2.55 ± 0.4
PRGRLDLATQSLTVETCRALGKLL [LRRC45]	2.38 ± 0.28	2.31 ± 0.31
EELCAQSARCVVSFNILVEDRVKL [PCDHGA10]	2.57 ± 0.19	2.21 ± 0.4
QIITVTVQTGLDQYQQVPVEIVKS [IQUB]	2.32 ± 0.17	2.07 ± 0.38

Sequence	protein stability index (treatment: DMSO)	protein stability index (treatment: MLN4924 1 uM, 8 h)
KLHEIFRGLHEDLQGVPERLLGTA [VTI1B]	2.48 ± 0.3	2.72 ± 0.74
PIVPKIAGDGDTSNFETYPENDWD [PRKX]	5.51 ± 0.17	5.37 ± 0.32
EKAFSYRQMAFDFARVKKGADGVM [SNAP91]	2.67 ± 0.16	2.86 ± 0.31
LEMCVDARTFGNEARFIRRSCTPN [KMT2E]	3.19 ± 0.21	3.13 ± 0.16
WKLQKKEHPPEVSRETQRTPMNHQ [FBXO34]	4.52 ± 0.11	4.49 ± 0.16
GDDSDLSEGFESDSSHDSARASEG [SMG5]	5.47 ± 0.3	5.48 ± 0.13
RIHSGEEPHKCPECGKRFLRSSDL [ZNF449]	3.51 ± 0.73	4.09 ± 0.34
GAEQPPDLHCVLVTNPHSSQWKDP [GADD45A]	4.29 ± 0.2	4.44 ± 0.12
WSRNSKPVHTTILNPHIHLMGDES [CAMK2A]	3.4 ± 0.28	3.53 ± 0.08
LNEDPLKWWSDRLALFPLLPKVLQ [ZBED1]	2.2 ± 0.25	2.16 ± 0.1
WMENNGHVAGEQMLEDGPHNANRG [CCDC70]	5.23 ± 0.39	5.25 ± 0.14
PGNKGRGQRGNTESKTDGDDTETV [TCF25]	5.57 ± 0.3	5.54 ± 0.3
DTSKQKKMETMYPFIVTLEGNALQ [ZNF449]	3.12 ± 0.34	2.85 ± 0.12
ERLNKEYQEIFQQLQRSWVKMDQK [TRIM43]	3.23 ± 0.3	3.39 ± 0.55
YQETISDVLNDAIFDEDHDEMVIV [GCH1]	3.98 ± 0.09	4.02 ± 0.25
RVNKEHEHKLKVVRDQISHCTVKL [TRIM9]	3.29 ± 0.31	3.39 ± 0.29

From the supplement of paper PMC10567573
